# From publication PMC3222324, “PEGylating a bacteriophage endolysin inhibits its bactericidal activity” (AMB Express, 2011)
# Target: the molecule itself
# Assay: non-reducing SDS-PAGE; purified enzyme, not reduced; 37 kDa and 74 kDa bands (Figure 1, lane 2)
protein,measurement,value
"Cpl-1^C45S;D194C (enzyme, pneumococcal phage, UniProt P15057 1-339, looked up, Cpl-1, pneumococcal phage lysin (endolysin); gene originally carried on plasmid pJML6; expected 37 kDa band; Purified preparation holds the 37 kDa monomer and a 74 kDa disulfide-linked dimer; construct described in Resch et al., 2011; source: E. coli DH5α, purified (DEAE-Sepharose, eluted with choline)) MVKKNDLFVDVSSHNGYDITGILEQMGTTNTIIKISESTTYLNPSLSAQVEQSNPIGFYHFARFGGDVAEAEREAQFFLDNVPMQVKYLVLDYEDDPSGDAQANTNACLRFMQMIADAGYKPIYYSYKPFTHDNVDYQQILAQFPNSLWIAGYGLNDGTANFEYFPSMDGIRWWQYSSNPFDKNIVLLDDEEDCKPKTAGTWKQDSKGWWFRRNNGSFPYNKWEKIGGVWYYFDSKGYCLTSEWLKDNEKWYYLKDNGAMATGWVLVGSEWYYMDDSGAMVTGWVKYKNNWYYMTNERGNMVSNEFIKSGKGWYFMNTNGELADNPSFTKEPDGLITVA",stoichiometry N,2
